In paper doi:10.1101/2021.04.13.439655:

Biological target: full-length Smad2, wild type (S2FLWT), Q15796
Experiment: SAXS with ensemble optimization method
Settings: remark: other sources report otherwise

B1: full-length Smad2, wild type (S2FLWT), Q15796 1-467 (natural protein)
chain: MSSILPFTPPVVKRLLGWKKSAGGSGGAGGGEQNGQEEKWCEKAVKSLVKKLKKTGRLDELEKAITTQNCNTKCVTIPSTCSEIWGLSTPNTIDQWDTTGLYSFSEQTRSLDGRLQVSHRKGLPHVIYCRLWRWPDLHSHHELKAIENCEYAFNLKKDEVCVNPYHYQRVETPVLPPVLVPRHTEILTELPPLDDYTHSIPENTNFPAGIEPQSNYIPETPPPGYISEDGETSDQQLNQSMDTGSPAELSPTTLSPVNHSLDLQPVTYSEPAFWCSIAYYELNQRVGETFHASQPSLTVDGFTDPSNSERFCLGLLSNVNRNATVEMTRRHIGRGVRLYYIGGEVFAECLSDSAIFVQSPNCNQRYGWHPATVCKIPPGCNLKIFNNQEFAALLAQSVNQGFEAVYQLTRMCTIRMSFVKGWGAEYRRQTVTSTPCWIELHLNGPLQWLDKVLTQMGSPSVRCSSMS
B1 showed a percent of the population as dimer at 56 μM of 18%, a percent of the population as trimer at 13.8 μM of 1% and a percent of the population as trimer at 56.1 μM of 16.4%.
